In patent US20190270826A1 (Janssen / Centocor, published 2019):

Legend:
[1] = molecular target: T1, human IL1RAP on cells (endogenous) (human, UniProt Q9NPH3 21-570); test: cell-based or functional assay
T1 sequence (looked up): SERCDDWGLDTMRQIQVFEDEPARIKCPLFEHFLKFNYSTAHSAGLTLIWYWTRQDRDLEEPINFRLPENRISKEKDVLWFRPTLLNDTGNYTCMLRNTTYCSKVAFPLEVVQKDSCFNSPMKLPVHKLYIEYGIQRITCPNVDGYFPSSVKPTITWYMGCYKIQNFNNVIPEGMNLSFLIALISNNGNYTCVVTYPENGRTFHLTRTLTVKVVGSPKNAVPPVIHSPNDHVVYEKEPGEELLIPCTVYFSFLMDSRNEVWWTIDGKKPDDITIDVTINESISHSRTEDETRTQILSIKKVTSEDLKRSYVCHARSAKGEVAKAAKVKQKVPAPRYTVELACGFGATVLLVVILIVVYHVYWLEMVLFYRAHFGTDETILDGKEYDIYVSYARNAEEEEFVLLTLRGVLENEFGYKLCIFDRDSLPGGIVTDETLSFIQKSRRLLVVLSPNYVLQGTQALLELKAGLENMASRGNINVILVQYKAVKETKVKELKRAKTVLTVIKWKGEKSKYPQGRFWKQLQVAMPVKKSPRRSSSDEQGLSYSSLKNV

[2] = molecular target: T1, human IL1RAP on cells (endogenous); test: cell-based or functional assay; remark: listed apart in the source
human FcγRI = molecular target: T2, human FcγRI (human, UniProt P12314 16-292, limits assumed); test: AlphaScreen competition, human FcγRI (n=1); displaced: biotinylated control mAb B21M hIgG1 AlaAla; pH 7.2
T2 construct: GST-tagged, on glutathione acceptor beads; also called FcγRT [sic]
T2 sequence (P12314 16-292 limits assumed): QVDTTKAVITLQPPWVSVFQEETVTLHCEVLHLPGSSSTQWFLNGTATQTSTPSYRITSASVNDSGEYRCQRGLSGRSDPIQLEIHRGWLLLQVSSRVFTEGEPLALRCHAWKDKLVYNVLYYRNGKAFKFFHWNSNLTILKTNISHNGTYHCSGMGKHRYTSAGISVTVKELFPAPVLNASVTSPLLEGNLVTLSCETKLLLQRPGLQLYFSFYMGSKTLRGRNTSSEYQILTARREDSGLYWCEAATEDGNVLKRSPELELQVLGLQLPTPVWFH
From the text: Measurements were made using an AlphaScreen™ assay (Amplified Luminescent Proximity Homogeneous Assay (ALPHA), PerkinElmer, Wellesley, Mass.), a bead-based luminescent proximity assay. Laser excitation of a donor bead excites oxygen, which if sufficiently close to the acceptor bead generates a cascade of chemiluminescent events, ultimately leading to fluorescence emission at 520-620 nm.

[3] = molecular target: T3, rat IL1RAP ECD displayed on HEK-293F cells (pDisplay) (rat, UniProt Q63621 21-367); test: MSD cell binding, HEK-293F Rat clone 1 cells displaying rat IL1RAP ECD
T3 sequence: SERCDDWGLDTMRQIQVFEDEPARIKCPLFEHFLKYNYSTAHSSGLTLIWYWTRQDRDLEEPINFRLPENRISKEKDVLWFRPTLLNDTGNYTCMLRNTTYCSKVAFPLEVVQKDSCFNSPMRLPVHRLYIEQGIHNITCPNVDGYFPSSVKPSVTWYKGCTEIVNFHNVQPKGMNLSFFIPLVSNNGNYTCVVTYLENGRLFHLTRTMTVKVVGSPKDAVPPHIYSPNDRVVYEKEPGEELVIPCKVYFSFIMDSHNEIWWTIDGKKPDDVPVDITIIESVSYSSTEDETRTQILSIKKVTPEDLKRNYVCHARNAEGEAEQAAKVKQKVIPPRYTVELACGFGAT
Protocol: (§1) Cells were immobilized and IL1RAP antibody samples were assayed in triplicate. Briefly, expression supernatants of purified IL1RAP antibodies were normalized to 10 μg/mL. 5000 cells per well were plated into a 384 well plate (MA6000, cat. L21XB, MSD) and allowed to adhere for 2 hr. Cells were then blocked with 20% FBS in PBS (Gibco) for 15 mins. Antibody supernatants were then added and left at RT for 1 hr. Cells were washed 3 times with PBS and a ruthenium labeled secondary antibody (Mesoscale Discovery) was then added at 2 μg/mL and incubated for 1 hour at room temperature. A further washing step was then applied and 35 μL per well of 2×MSD Read buffer T (surfactant free) was then added and incubated for 5-30 minutes for detection. Plates were then read using Sector Imager 2400 (MSD). Data was normalized to controls and graphed using GraphPad Prism Version 5. A positive binder was determined to be a hit with a signal 3× greater than parental cell line background.
(§2) The MSD cell binding assay described in Example 4 was used to assess IL1RAP binding.

[4] = molecular target: T4, mouse IL1RAP ECD displayed on HEK-293F cells (pDisplay) (mouse, UniProt Q61730 21-367); test: MSD cell binding, HEK-293F Mouse clone 5 cells displaying mouse IL1RAP ECD
T4 sequence: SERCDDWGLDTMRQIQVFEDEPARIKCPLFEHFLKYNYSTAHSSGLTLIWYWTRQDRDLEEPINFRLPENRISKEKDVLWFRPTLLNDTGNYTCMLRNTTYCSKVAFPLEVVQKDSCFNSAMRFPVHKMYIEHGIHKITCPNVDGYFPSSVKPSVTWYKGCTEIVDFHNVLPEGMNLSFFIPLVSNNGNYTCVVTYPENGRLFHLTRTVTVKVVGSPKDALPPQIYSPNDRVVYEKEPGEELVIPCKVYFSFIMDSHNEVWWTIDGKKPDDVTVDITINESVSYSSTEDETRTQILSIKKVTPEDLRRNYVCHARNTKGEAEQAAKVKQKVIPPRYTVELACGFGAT
Protocol: as §1, §2

[5] = molecular target: T1, human IL1RAP on cells (endogenous); test: cell-based or functional assay; remark: listed apart in the source

B1: IC3B19 (bispecific antibody, human IgG4 S228P, kappa, lambda, F234A L235A)
heavy 1: EVQLVESGGGLVQPGGSLRLSCAASGFTFNTYAMNWVRQAPGKGLEWVARIRSKYNNYATYYAASVKGRFTISRDDSKNSLYLQMNSLKTEDTAVYYCARHGNFGNSYVSWFAYWGQGTLVTVSSASTKGPSVFPLAPCSRSTSESTAALGCLVKDYFPEPVTVSWNSGALTSGVHTFPAVLQSSGLYSLSSVVTVPSSSLGTKTYTCNVDHKPSNTKVDKRVESKYGPPCPPCPAPEAAGGPSVFLFPPKPKDTLMISRTPEVTCVVVDVSQEDPEVQFNWYVDGVEVHNAKTKPREEQFNSTYRVVSVLTVLHQDWLNGKEYKCKVSNKGLPSSIEKTISKAKGQPREPQVYTLPPSQEEMTKNQVSLTCLVKGFYPSDIAVEWESNGQPENNYKTTPPVLDSDGSFLLYSKLTVDKSRWQEGNVFSCSVMHEALHNHYTQKSLSLSLGK
light 1: QTVVTQEPSLTVSPGGTVTLTCRSSTGAVTTSNYANWVQQKPGQAPRGLIGGTNKRAPGTPARFSGSLLGGKAALTLSGVQPEDEAEYYCALWYSNLWVFGGGTKLTVLGQPKAAPSVTLFPPSSEELQANKATLVCLISDFYPGAVTVAWKADSSPVKAGVETTTPSKQSNNKYAASSYLSLTPEQWKSHRSYSCQVTHEGSTVEKTVAPTECS
heavy 2: not shown
light 2: DIQLTQSPSFLSASVGDRVTITCRASQGISSYLAWYQQKPGKAPKLLIYAASTLQSGVPSRFSGSGSGTEFTLTISSLQPEDFATYYCQQVNSYPLTFGGGTKVEIKRTVAAPSVFIFPPSDEQLKSGTASVVCLLNNFYPREAKVQWKVDNALQSGNSQESVTEQDSKDSTYSLSSTLTLSKADYEKHKVYACEVTHQGLSSPVTKSFNRGEC
notes: IgG4-PAA, Fab arm exchange; also called IAPB57 x CD3B219; IL1RAP x CD3
EC50, caspase area/well AUC, Calu-3 with T cells, 72 h [1]: 0.716 nM | EC50, caspase area/well AUC, DU145 with T cells, 72 h [1]: 0.445 nM | EC50, caspase area/well AUC, H196 with T cells, 72 h [1]: 0.019 nM | EC50, caspase area/well AUC, H226 with T cells, 72 h [1]: 0.134 nM | EC50, caspase area/well AUC, H716 with T cells, 72 h [1]: 0.004 nM | EC50, caspase area/well AUC, H1975 with T cells, 72 h [1]: 0.013 nM | EC50, caspase area/well AUC, H2172 with T cells, 72 h [1]: 0.039 nM | EC50, caspase area/well AUC, H2228 with T cells, 72 h [1]: 0.043 nM | EC50, caspase area/well AUC, LNCAP with T cells, 72 h [1]: 0.039 nM | EC50, caspase area/well AUC, PC3 with T cells, 72 h [1]: 0.102 nM | EC50, caspase area/well AUC, Panc0213 with T cells, 72 h [1]: 0.192 nM | EC50, caspase area/well AUC, Panc0327 with T cells, 72 h [1]: 0.181 nM | EC50, caspase area/well AUC, SKMES-1 with T cells, 72 h [1]: 0.031 nM | EC50, caspase area/well AUC, SW1271 with T cells, 72 h [1]: 0.078 nM | mean EC50, T-cell activation, OCI-AML5 cells in whole blood, 48 h [2]: 5.99 nM | mean EC50, cytotoxicity of OCI-AML5 cells in whole blood, 48 h [2]: 3.13 nM | IC50 (read off the curve) (human FcγRI): ~90 nM | binding result [3]: no binding (tested: 100 µg/mL) | binding result [4]: no binding (tested: 100 µg/mL) | Average EC50, T-cell mediated cytotoxicity, ALL-SIL [5]: 0.004 nM | Average EC50, T-cell mediated cytotoxicity, HPB-ALL [5]: 0.008 nM | Average EC50, T-cell mediated cytotoxicity, LAMA-84 [5]: 0.001 nM | Average EC50, T-cell mediated cytotoxicity, MEG-01 [5]: 0.002 nM
